# Assay results: PMC7948479, “Allostery in the nitric oxide dioxygenase mechanism of flavohemoglobin” (The Journal of Biological Chemistry, 2020)
# Read-outs that look alike come from different tables or passages of the source.
# B1: WT: wild-type E. coli flavohemoglobin (flavoHb), an NO dioxygenase (NOD) (protein, UniProt P24232 1-396, looked up)
# Flavohemoprotein: MLDAQTIATVKATIPLLVETGPKLTAHFYDRMFTHNPELKEIFNMSNQRNGDQREALFNAIAAYASNIENLPALLPAVEKIAQKHTSFQIKPEQYNIVGEHLLATLDEMFSPGQEVLDAWGKAYGVLANVFINREAEIYNENASKAGGWEGTRDFRIVAKTPRSALITSFELEPVDGGAVAEYRPGQYLGVWLKPEGFPHQEIRQYSLTRKPDGKGYRIAVKREEGGQVSNWLHNHANVGDVVKLVAPAGDFFMAVADDTPVTLISAGVGQTPMLAMLDTLAKAGHTAQVNWFHAAENGDVHAFADEVKELGQSLPRFTAHTWYRQPSEADRAKGQFDSEGLMDLSKLEGAFSDPTMQFYLCGPVGFMQFTAKQLVDLGVKQENIHYECFGPHKVL
# Assays:
# [1] = design: method as in PMID 7821669; conditions: cited from earlier work
# flavoHb = system: flavoHb; design: method as in PMID 22948361; conditions: cited from earlier work
# [2] = molecular target: flavoHb heme (Fe^2+ / Fe^3+) (Escherichia coli, UniProt P24232)
# Procedure: (§1) FAD and heme reduction were monitored by following the changes in flavoHb absorbance at 460 and 430 nm, respectively, with stopped-flow rapid mixing of 50 μM NADH and 10 μM flavoHb in N2-purged buffer ([4]). O2, NO, and CO association rate constants were determined by photolyzing 50 μM of the respective ferrous flavoHb species with a 300-ns pulse from a 577-nm laser and by spectrophotometrically following ligand reassociation in O2-, NO-, or CO-saturated buffer unless otherwise indicated ([4], [5]). […] Binding of NO was measured by the change of absorbance at 422 nm by applying a difference extinction coefficient of 0.040 μM^−1 cm^−1. O2 and CO dissociation rate constants were determined by stopped-flow rapid mixing with either CO or NO displacement ([4], [5]). The cuvette path length was 1.0 cm. All reactions were at 20 °C in filtered 100 mM sodium phosphate buffer, pH 7.0, containing 0.3 mM EDTA. Catalase (1000 U/ml) was included in all reactions containing O2 to scavenge H2O2 produced by the NADH oxidase activity of flavoHb and to regenerate O2.
# E. coli flavoHb [3] = molecular target: E. coli flavoHb (Escherichia coli, UniProt P24232)
# Procedure: as §1
# E. coli flavoHb [4] = system: E. coli flavoHb
# Procedure: as §1
# [5] = system: flavoHb heme (Fe^2+ / Fe^3+); conditions: for Kd: from slow phase; for time for 90% activity recovery following NO binding: calculated from k(NO)
# Procedure: as §1
# NADH oxidase activity = format: biochemical; conditions: 37 °C; relative to heme content
# Procedure: NADH oxidase activity was followed spectrophotometrically at 340 nm in a 1.0-ml cuvette containing 90 mM Tris chloride buffer, pH 8.2, 100 μM NADH, 200 μM O2, 0.1 μM FAD, 100 μg/ml BSA, and 0.3 mM EDTA and incubated at 37 °C. […] TMAO reductase activity was assayed by following the absorbance decrease at 340 nm in a 1.0-ml anaerobic reaction containing 12 U Aspergillus niger glucose oxidase, 5 mM glucose, 260 U catalase, 400 mM TMAO, 100 μM NADH, 0.1 μM FAD, 100 μg/ml BSA, and 0.3 mM EDTA in 90 mM Tris chloride pH 8.2 and incubated at 37 °C. […] Methyl viologen reductase activity was assayed by following the formation of the blue cation radical at 603 nm and by applying an extinction coefficient of 13,300 M^−1 cm^−1 in a 1.0-ml anaerobic reaction buffered with 10 mM potassium phosphate, pH 7.0, and containing 12 U glucose oxidase, 5 mM glucose, 260 U catalase, 100 μM NADH, 0.1 μM FAD, 100 μg/ml BSA, 0.3 mM EDTA, and 200 mM sodium chloride and incubated at 37 °C. NO reductase activity was assayed amperometrically at 37 °C in a 1.0-ml anaerobic reaction containing 2 μM NO, 100 μM NADH, 0.1 μM FAD, 12 U glucose oxidase, 5 mM glucose, 260 U catalase, 100 μg/ml BSA, and 0.3 mM EDTA buffered with 10 mM potassium phosphate pH 7.0. CO effects were tested at a final concentration of 50 μM as diluted from a 1 mM stock in water. […]
# [6] = system: flavoHb heme (Fe^2+ / Fe^3+); conditions: cited from earlier work
# [7] = Fe2+ CO, 100 µM CO in the presence of 0.6 mM N2
# [8] = Fe2+ O2, 100 µM CO in the presence of 1 mM O2
molecule,measurement,setting,value
B1,FAD/FADH2 potential (E^0),[1],< −0.15 V
same,nominal heme mid-point potential,[1],−0.125 V
same,kET by time-resolved pulse radiolysis,flavoHb,6800 s⁻¹
same,decrease of fraction of flavoHbFe^3+O2^− formed in the fast phase,[2],~50%
same,τT for O2 rebinding,[2],~55 μs
same,"k′H, bimolecular rate constant for hydride transfer NADH to FAD",E. coli flavoHb [3],1.5e+07 M⁻¹ s⁻¹
same,"kET, heme reduction by FADH2 (maximum / apparent)","E. coli flavoHb [4]; 20 °C, absorbance at 430 nm",120 s⁻¹
same,maximal NADH-driven ET rate measured by stopped flow,E. coli flavoHb [4]; Fig. 9B,160 s⁻¹
same,k' fast,[5]; [7],29 µM⁻¹ s⁻¹
same,k' slow,[5]; [7],2.7 µM⁻¹ s⁻¹
same,τT,[5]; [7],500 ± 100 µs
same,k' fast,[5]; [8],29 µM⁻¹ s⁻¹
same,k' slow,[5]; [8],1.9 µM⁻¹ s⁻¹
same,τT,[5]; [8],70 ± 10 µs
same,k′fast,"[5]; Fe^2+ CO, 20 °C",14 µM⁻¹ s⁻¹
same,k′slow,"[5]; Fe^2+ CO, 20 °C",1.4 µM⁻¹ s⁻¹
same,τT,"[5]; Fe^2+ CO, 20 °C",175 ± 25 μs
same,Kd,"[5]; Fe^2+ CO, 20 °C",12 to 39 nM
same,k′fast,"[5]; Fe^2+ NO, 20 °C",31 µM⁻¹ s⁻¹
same,k′slow,"[5]; Fe^2+ NO, 20 °C",8.5 µM⁻¹ s⁻¹
same,τT,"[5]; Fe^2+ NO, 20 °C",40 ± 10 μs
same,Kd,[5]; Fe^2+ NO,0.024 nM
same,k′fast,"[5]; Fe^2+ O2, 20 °C",33 µM⁻¹ s⁻¹
same,k′slow,"[5]; Fe^2+ O2, 20 °C",14 µM⁻¹ s⁻¹
same,τT,"[5]; Fe^2+ O2, 20 °C",70 ± 5 μs
same,k,"[5]; Fe^2+ O2 dissociation, 20 °C",0.20 s⁻¹
same,k′fast,"[5]; Fe^3+ NO, 20 °C",46 µM⁻¹ s⁻¹
same,k′slow,"[5]; Fe^3+ NO, 20 °C",12 µM⁻¹ s⁻¹
same,τT,"[5]; Fe^3+ NO, 20 °C",18 ± 3 μs
same,Kd,[5]; Fe^3+ NO,330000 nM
same,time for 90% activity recovery following NO binding,[5]; ferric NO form,0.6 ms
same,time for 90% activity recovery following NO binding,[5]; ferrous NO species,1.15e+07 ms
same,NADH oxidase activity,NADH oxidase activity,0.27 s⁻¹
same,k,[6]; Fe^2+ NO dissociation,0.0002 (4) s^−1
same,k,[6]; Fe^3+ NO dissociation,∼4000 (4) s^−1
